The values below come from paper PMC12906813, “The Transcription Factors NFYA1 and GBF3 Jointly Regulate CHS2 to Promote Tangeretin Accumulation and Cold Tolerance in Citrus”.

For one data set, the target named is T1, CiGBF3 (Citrus ichangensis (Ichang papeda), UniProt V4U7K8 1-421).
T1 sequence: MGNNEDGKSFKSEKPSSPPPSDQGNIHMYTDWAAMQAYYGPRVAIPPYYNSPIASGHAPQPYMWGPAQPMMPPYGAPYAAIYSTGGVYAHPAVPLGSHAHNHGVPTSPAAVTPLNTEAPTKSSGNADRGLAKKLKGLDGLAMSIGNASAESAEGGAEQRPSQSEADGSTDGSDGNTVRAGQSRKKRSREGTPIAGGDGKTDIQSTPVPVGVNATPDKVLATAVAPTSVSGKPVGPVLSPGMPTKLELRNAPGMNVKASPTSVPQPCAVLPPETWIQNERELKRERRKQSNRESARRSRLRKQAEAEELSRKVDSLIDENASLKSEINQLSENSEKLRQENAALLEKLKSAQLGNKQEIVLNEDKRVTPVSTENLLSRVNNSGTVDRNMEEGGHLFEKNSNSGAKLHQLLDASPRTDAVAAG
The experiment in a line: EMSA; Chemiluminescent EMSA Kit (Beyotime GS009); buffer, salt, pH and temperature not stated. The settings on record: protein: recombinant; tags: His (pHMGWA vector); chain copies: 2; label: biotin; blunt.

For a further data set, the target named is CiNFYA1 (Citrus ichangensis (Ichang papeda), UniProt A0A067ER94 1-365). The data set is described as above. The settings on record: protein: recombinant; tags: His (pHMGWA vector); label: biotin; blunt.
CiNFYA1, sequence (A0A067ER94 entry or part of it): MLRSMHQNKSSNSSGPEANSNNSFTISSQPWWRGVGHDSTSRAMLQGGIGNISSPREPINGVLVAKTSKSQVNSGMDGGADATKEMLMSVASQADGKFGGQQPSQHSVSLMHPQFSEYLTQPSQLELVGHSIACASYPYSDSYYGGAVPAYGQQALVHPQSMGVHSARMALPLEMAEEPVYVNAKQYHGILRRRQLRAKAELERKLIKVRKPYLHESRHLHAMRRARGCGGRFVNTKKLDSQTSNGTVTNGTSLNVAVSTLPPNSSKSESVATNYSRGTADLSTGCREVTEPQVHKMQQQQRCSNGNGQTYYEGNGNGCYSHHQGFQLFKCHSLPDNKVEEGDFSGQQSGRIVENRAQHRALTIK

B1: CHS2-CACGTG probe (Probe 2) (dsDNA)
DNA 1: GCAGCCTAACACTATCCACGTGGTCAGCATCTGCCCGT
DNA 2: ACGGGCAGATGCTGACCACGTGGATAGTGTTAGGCTGC
B1: the binding result with CiGBF3 is given as “binds”.

B2: CHS2-CCAAT probe (Probe 1) (dsDNA)
DNA 1: AAAGATCCATTTAATATGTTCCAATTACCGCATTACAAGTACTAAA
DNA 2: TTTAGTACTTGTAATGCGGTAATTGGAACATATTAAATGGATCTTT
With B2, the binding result in the data set with CiNFYA1 is “binds”.

B3: CHS2-mCCAAT probe (mProbe1) (dsDNA)
DNA 1: AAAGATCCATTTAATATGTAAAAAATACCGCATTACAAGTACTAAA
DNA 2: TTTAGTACTTGTAATGCGGTATTTTTTACATATTAAATGGATCTTT
For B3, in the data set with CiNFYA1, the binding result is given as “no binding”.

B4: CHS2-mCACGTG probe (mProbe2) (dsDNA)
DNA 1: GCAGCCTAACACTATCTTTTTTGTCAGCATCTGCCCGT
DNA 2: ACGGGCAGATGCTGACAAAAAAGATAGTGTTAGGCTGC
For B4, the binding result with CiGBF3 is “no binding”.
